According to publication PMC10042815:

Biological target: thrombin (Sigma, Germany)

Substance	antithrombin activity by thrombin titration (bovine fibrinogen, fibrin clot within 1 min as endpoint, 37 °C, 50 mM Tris-HCl pH 7.4) [ATU/mL]
commercially available hirudin (MedChem Express) (natural protein)	12000
recombinant hirudin from Hirudo nipponia (candidate hirudin gene c16237_g1) (natural protein)	14000
